Laboratory results: patent EP1096011A1, “Microbiological production method for alpha-l-aspartyl-l-phenylalanine” (Holland Sweetener Company V.o.F., priority 1999, dated 2001)

Key:
Test in all cases: ATP-PPi exchange reaction (amino acid activation)
[1] = tested on: Asp-Phe-TE-His6, hybrid Asp-Phe dipeptide synthetase with integrated srfA-C thiolation and TE domain, His6-tagged; assay type: biochemical, Bacillus subtilis ATCC 21332 / Bacillus brevis ATCC 8185; details: 37°C
Method: (§1) Specificity of amino acid activation was determined indirectly by incorporation of labelled ^32PPi into ATP during reverse reaction (Lee, S.G. & Lipmann, F.; Tyrocidine synthetase system; Methods Enzymol. 43, 1975, p.585-602). For this purpose 20 pmol of each enzyme was incubated with 1 mM amino acid, 1 mM ATP, 0,1 mM PPi, 50 mM HEPES, 100 mM NaCl and 10 mM MgCl2 and 2 mCi ^32PPi at 37°C in a total volume of 100 µL. Reactions were quenched after 10 min by adding 500 µL of a solution containing 100 mM NaPPi, 560 mM perchloric acid and 1,2% (w/v) active charcoal. The mixture was centrifuged at 13000 rpm for 1 min. The pellet was washed and resuspended twice with 1 mL H2O.
(§2) Incorporation of labelled ATP (adsorbed to the charcoal) was detected by measuring radioactivity of the precipitate. […] KM values for Asp and ATP were determined to be 3,5 mM and 0,9 mM respectively. KM values for Leu and ATP were detected to be 0,3 mM and 0,6 mM, respectively.
(§3) The KM value for Phe was determined to be about 50 µM.

[2] = tested on: Asp-Phe-His6, hybrid Asp-Phe dipeptide synthetase (Asp module of Bacillus subtilis ATCC 21332 srfA-B, Phe minimal module of Bacillus brevis ATCC 8185 tycA) …; assay type: biochemical, Bacillus subtilis ATCC 21332 / Bacillus brevis ATCC 8185; details: 37°C
Method: as §1, §2, §3

[3] = substrate: CC(C)C[C@H](N)C(=O)O; assay type: biochemical, Bacillus subtilis ATCC 21332; details: other: ATP-PPi exchange, 37°C
Method: as §1, §2

[4] = substrate: N[C@@H](CC(=O)O)C(=O)O; assay type: biochemical, Bacillus subtilis ATCC 21332; details: other: ATP-PPi exchange, 37°C
Method: as §1, §2

[5] = substrate: Nc1ncnc2c1ncn2[C@@H]1O[C@H](COP(=O)(O)OP(=O)(O)OP(=O)(O)O)[C@@H](O)[C@H]1O; assay type: biochemical, Bacillus subtilis ATCC 21332; details: other: ATP-PPi exchange, 37°C
Method: as §1, §2

Molecule	Km [1] [µM]	Km [2] [µM]	Km [3] [µM]	Km [4] [µM]	Km ([5]; ATP value paired with Asp (Asp activation)) [µM]	Km ([5]; ATP value paired with Leu (Leu activation)) [µM]
N[C@@H](Cc1ccccc1)C(=O)O [Phe, L-phenylalanine]	~50	~50	–	–	–	–
Asp-Leu-His6, Asp-Leu dimodular peptide synthetase from Bacillus subtilis ATCC 21332 surfactin synthetase (srfA-B), His6-tagged (Bacillus subtilis subsp. … (protein) PNVRLSDVDLLSSAETAALLEERHMTQITEATFAALFEKQAQQTPDHSAVKAGGNLLTYRELDEQANQLAHHLRAQGAGNEDIVAIVMDRSAEVMVSILGVMKAGAAFLPIDPDTPEERIRYSLEDSGAKFAVVNERNMTAIGQYEGIIVSLDDGKWRNESKERPSSISGSRNLAYVIYTSGTTGKPKGVQIEHRNLTNYVSWFSEEAGLTENDKTVLLSSYAFDLGYTSMFPVLLGGGELHIVQKETYTAPDEIAHYIKEHGITYIKLTPSLFHTIVNTASFAKDANFESLRLIVLGGEKIIPTDVIAFRKMYGHTEFINHYGPTEATIGAIAGRVDLYEPDAFAKRPTIGRPIANAGALVLNEALKLVPPGASGQLYITGQGLARGYLNRPQLTAERFVENPYSPGSLMYKTGDVVRRLSDGTLAFIGRADDQVKIRGYRIEPKEIETVMLSLSGIQEAVVLAVSEGGLQELCAYYTSDQDIEKAELRYQLSLTLPSHMIPAFFVQVDAIPLTANGKTDRNALPKPNAAQSGGKALAAPETALEESLCRIWQKTLGIEAIGIDDNFFDLGGHSLKGMMLIANIQAELEKSVPLKALFEQPTVRQLAAYMEASAVSGGHQVLKPADKQDMYPLSSAQKRMYVLNQLDRQTISYNMPSVLLMEGELDISRLRDSLNQLVNRHESLRTSFMEANGEPVQRIIEKAEVDLHVFEAKEDEADQKIKEFIRPFDLNDAPLIRAALLRIEAKKHLLLLDMHHIIADGVSRGIFVKELALLYKGEQLPEPTLHYKDFAVWQNEAEQKERMKEHEAYWMSVLSGELPELDLPLDYARPPVQSFKGDTIRFRTGSETAKAVEKLLAETGTTLHMVLHAVFHVFLSKISGQRDIVIGSVTAGRTNADVQDMPGMFVNTLALRMEAKEQQTFAELLELAKQTNLSALEHQEYPFEDLVNQLDLPRDMSRNPLFNVMVTTENPDKEQLTLQNLSISPYEAHQGTSKFDLTLGGFTDENGIGLQLEYATDLFAKETAEKWSEYVLRLLKAVADNPNQPLSSLLLVTETEKQALLEAWKGKALPVPTDKTVHQLFEETVQRHKDRPAVTYNGQSWTYGELNAKANRLARILMDCGISPDDRVGVLTKPSLEMSAAVLGVLKAGAAFVPIDPDYPDQRIEYILQDSGAKLLLKQEGISVPDSYTGDVILLDGSRTILSLPLDENDEGNPETAVTAENLAYMIYTSGTTGQPKGVMVEHHALVNLCFWHHDAFSMTAEDRSAKYAGFGFDASIWEMFPTWTIGAELHVIDEAIRLDIVRLNDYFETNGVTITFLPTQLAEQFMELENTSLRVLLTGGDKLKRAVKKPYTLVNNYGPTENTVVATSAEIHPEEGSLSIGRAIANTRVYILGEGNQVQPEGVAGELCVAGRGLARGYLNREDETAKRFVADPFVPGERMYRTGDLVKWVNGGIEYIGRIDQQVKVRGYRIELSEIEVQLAQLSEVQDAAVTAVKDKGGNTAIAAYVTPETADIEALKSTLKETLPDYMIPAFWVTLNELPVTANGKVDRKALPEPDIEAGSGEYKAPTTDMEELLAGIWQDVLGMSEVGVTDNFFSLGGDSIKGIQMASRLNQHGWKLEMKDLFQHPTIEELTQYVERAE	–	–	300	3500	900	600
